The text below walks through data of the supplement of paper PMC12764529.

A short description of series [1]: folding stability dG unfold from trypsin proteolysis; higher = more stable. Summed up:
(§1)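 Sequencing followed digestion of designed mini-proteins with trypsin and chymotrypsin, each at 11 concentrations in threefold dilutions together with a no-protease condition. The mini-proteins were under 80 residues, had no cysteine, sat in a PA-tagged cDNA display construct, and were kept only if AlphaFold2 dimer inter-PAE was above 15. From the counts, Bayesian fitting gave K50, and unfolding free energy was derived against a sequence-predicted unfolded-state K50 and a shared folded-state K50, per protease or combined.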

Series [2] can be described thus: folding stability dG unfold (combined trypsin and chymotrypsin); higher = more stable. Summed up: as §1
Series [3] in a line: folding stability dG unfold from chymotrypsin proteolysis; higher = more stable. In short, it runs like this:
as §1

± gives the half width of the 95% confidence interval.

For the sequence “SAKFRVSISYDPPDGYLTIMFRYPNPNQPITPEEIEEIAREILEERGHKVKIDEIHHEGNYFMIKIKLPSAG [r14_556_TrROS]”, the results for the “folding stability dG unfold” value in series [1], in series [2] and in series [3] were 2.51 ± 0.11 kcal/mol, 2.75 ± 0.2 kcal/mol and 2.54 ± 0.11 kcal/mol, respectively.
The corresponding values for “SAKFRVTEIHPNGNNFEIRIERYDPNGEKKKLPIPVNADNMQIDEVDGDKITIYFPNNGREITLPLEDLSAG [r14_947_TrROS]” are -0.594 ± 0.34 kcal/mol, -0.152 ± 0.36 kcal/mol and -0.114 ± 0.42 kcal/mol.
As for “SAKIEIIKKDGEYYLRITLENGKKKTIKLKGIKKIEIKNGKIYIYNKKTGKKIILKNAKIKKIEIEKVPSAG [r14_83_TrROS_Hall]”, the entries for the “folding stability dG unfold” value in series [1], in series [2] and in series [3] were 3.1 ± 0.18 kcal/mol, 3.87 ± 0.41 kcal/mol and 4.6 ± 0.18 kcal/mol, respectively.
The matching figures for “SAKIEVYELPDGSKEIVFEFGDKVIRVTFFPDYPLAVVEVFDPPKDEVVKTIPVRADDLEDTIKKILEESAG [r14_583_TrMRF]”: 1.8 ± 0.096 kcal/mol, 2.67 ± 0.049 kcal/mol and 3.07 ± 0.049 kcal/mol.
“SAKIRIPLEKLIDLAESIPGVEVLYDPETGLLLAFIPEIGMLILIRLEEDPEDPDNVEVDIEIIPLSPFSAG [r14_604_TrMRF]”: the “folding stability dG unfold” value in series [1] is 2.75 ± 0.16 kcal/mol; in series [2] it was 2.4 ± 0.19 kcal/mol; in series [3] it was 2.08 ± 0.22 kcal/mol.
In the case of “SAKITFIAPGGKPIVIDIDPNYEVIEVIEFPELGVVLILLRNPETGELYAILITPPDYRPTYIELIPLDSAG [r14_311_TrMRF]”, the “folding stability dG unfold” value in series [1] was found to be 3.43 ± 0.096 kcal/mol; in series [2], 4.17 ± 0.2 kcal/mol; in series [3], 4.29 ± 0.15 kcal/mol.
The corresponding values for “SAKKIILIKAESEEELKKAIEEAKKLAEEGKKVEIIIETPKGLILIEIDVKTKKIKIKNLETGEEIELESAG [r14_423_TrROS_Hall]” are 1.49 ± 0.1 kcal/mol, 1.19 ± 0.23 kcal/mol and 0.375 ± 0.1 kcal/mol.
On to “SAKKIPLDDAKIRIKMESPNGMIMEFPIKNVQIDPKNGKLSFEFPMRIYNPDNGKERPMRMKIDEIVPVSAG [r14_825_TrROS]”, for which the “folding stability dG unfold” value in series [1] turned out to be 0.107 ± 0.37 kcal/mol; in series [2] it was 0.22 ± 0.19 kcal/mol; in series [3], 0.299 ± 0.25 kcal/mol.
The corresponding values for “SAKKITLTPPNGKKITITVHPDGSITITYEKGKITLPGHPGAKIKKATVDPKKGYITIIVNDKPIVIPISAG [r14_276_TrMRF]” are 1.66 ± 0.044 kcal/mol, 2.39 ± 0.12 kcal/mol and 2.83 ± 0.071 kcal/mol.
In the case of “SAKKKFKVKEVKVTKHKGKFKIGDKEIEKELYTVNVVIEDENGNKYPFTFTFEKPEELKKFVEKLEEEKSAG [r14_36_TrMRF]”, the “folding stability dG unfold” value in series [1] turned out to be 3.03 ± 0.17 kcal/mol; in series [2], 3.61 ± 0.2 kcal/mol; in series [3] it was 4.075 ± 0.028 kcal/mol.
The corresponding values for “SAKKKITVKIKIEYDKETGTLKVEVEITYPDGKKVKVEAEIDLKTGKITIKVYDKNGKLIAEIEIELPPSAG [r14_524_TrROS_Hall]” are 2.68 ± 0.25 kcal/mol, 2.61 ± 0.36 kcal/mol and 2.35 ± 0.092 kcal/mol.
The corresponding values for “SAKKKVIEVELPPDAKVVTIKLEGKGVEITFVEVDGKLVITVRYKDDPSKTVTIVVKTKEEADALLKALSAG [r14_716_TrROS_Hall]” are 1.23 ± 0.082 kcal/mol, 1.66 ± 0.27 kcal/mol and 1.85 ± 0.068 kcal/mol.
Take “SAKKLIIKVEVETFDEETGELKTEERTIEADTLEDALAEIERELPPGARVRIEVFDADGKLVETIEIELSAG [r14_234_TrROS_Hall]”: the “folding stability dG unfold” value was determined as 4.41 ± 0.23 kcal/mol in series [1], 3.92 ± 0.15 kcal/mol in series [2] and 3.1 ± 0.091 kcal/mol in series [3].
The matching figures for “SAKKTIVVPVEKLKELLDALKEAGYEVKVEYNKENPVVTVTITVKDKNGKELKIELVVDKKTGLVTIKLSAG [r14_169_TrROS_Hall]”: 1.97 ± 0.077 kcal/mol, 2.26 ± 0.13 kcal/mol and 2.45 ± 0.051 kcal/mol.
Consider “SAKLAKELAEELAKEILPKFPNIKAVKVEVEPLGDYAIATIIWEKENGKPIISKAIIEKNKKILKVDISSAG [r14_719_TrMRF]”, for which the “folding stability dG unfold” value came to 1.02 ± 0.047 kcal/mol in series [1], 1.19 ± 0.19 kcal/mol in series [2] and 1.26 ± 0.043 kcal/mol in series [3].
As to “SAKLIRDLLRDHGFPIKNIDVQKNPNGKTYISIEIKMYTPEYKNDEGRPKPRPVEMTATFPADDLLDALSAG [r14_16_TrROS]”, the “folding stability dG unfold” value in series [1] was determined as 0.91 ± 0.16 kcal/mol; in series [2], 0.676 ± 0.25 kcal/mol; in series [3], 0.507 ± 0.25 kcal/mol.
The matching figures for “SAKLPEGAVVVIEDIEEKEVNGKKYKTIKISVYDKKNKGKLIAETEIVVENGKIVEKKVKVKKVSKEELSAG [r14_651_TrROS_Hall]”: 0.887 ± 0.027 kcal/mol, 1.61 ± 0.14 kcal/mol and 2.05 ± 0.14 kcal/mol.
The matching figures for “SAKLTLEIEVNGKKYKAEITSVDEETGTVTIKVTFPDGSTQTLTLTFPPAPPPKVEKVYVVDKDGKLLKSAG [r14_466_TrROS_Hall]”: 0.644 ± 0.025 kcal/mol, 1.45 ± 0.12 kcal/mol and 1.83 ± 0.089 kcal/mol.
On to “SAKMSPEMRELVERLQDLYNENGYKVKIEMSNKPGMIRINVQMPNPRKKRKIKEALRGDGFPITRVEIYSAG [r14_284_TrROS]”, for which the “folding stability dG unfold” value in series [1] amounted to 1.62 ± 0.077 kcal/mol; in series [2], 1.36 ± 0.23 kcal/mol; in series [3], 0.929 ± 0.25 kcal/mol.
The matching figures for “SAKMYLVIIEIKKDGKTYKLIIIIPEEDENLTEEEILEKIRELAEKLNLEIEKIEVIPLEEAKKLLEELSAG [r14_953_TrROS_Hall]”: 3.66 ± 0.074 kcal/mol, 5.23 ± 0.13 kcal/mol and 5.25 ± 0.13 kcal/mol.
The corresponding values for “SAKNIAIKVSIWPFDPEDGEPQTFEITYPFPDPEDAIDEIEEFLPPGYRVKIEVFDPDGKPLKEIEIRISAG [r14_234_TrROS]” are 1.93 ± 0.1 kcal/mol, 2.09 ± 0.19 kcal/mol and 2.28 ± 0.048 kcal/mol.
The matching figures for “SAKPIPLKNVTINMYKDEKGNYYFKVTLNDKFIGEFEFETTEEALEGAIELAKEIEKIYGPNNIKIKNESAG [r14_791_TrMRF]”: 2.33 ± 0.2 kcal/mol, 2.64 ± 0.31 kcal/mol and 2.7 ± 0.067 kcal/mol.
For the sequence “SAKTIKIEIEVKPEKLEEVLEEIAKALAEKLGLPEDVKEIKIEVTKIEVEKVKVDGKEYVKVKIEIKVESAG [r14_736_TrROS_Hall]”, the “folding stability dG unfold” value in series [1] was found to be 3.04 ± 0.19 kcal/mol; in series [2], 3.59 ± 0.32 kcal/mol; in series [3], 3.97 ± 0.28 kcal/mol.
Take “SAKVITIKLKIKVKTEEELEKAKELADELAKKLAEEGKKVKVEVVKIEVEENENGEKTVTIEIKIYLEPSAG [r14_48_TrROS_Hall]”: the entries for the “folding stability dG unfold” value in series [1], in series [2] and in series [3] were 3.36 ± 0.22 kcal/mol, 3.6 ± 0.35 kcal/mol and 3.72 ± 0.21 kcal/mol, respectively.
Consider “SAKVSHLEFSLPNSVVTPEDLLAALEKLGFPPSKIKKMEIVKVKDNSYVVKIYLENEDGSDSIITLHLPSAG [r14_30_TrMRF]”, for which the “folding stability dG unfold” value is 0.515 ± 0.078 kcal/mol in series [1], 1.78 ± 0.11 kcal/mol in series [2] and 2.39 ± 0.066 kcal/mol in series [3].
The corresponding values for “SAKYYFITVEIYMRTGGGPRKMDITVMIPPEEMPPEDVKEIAKEIADWLAEHHPGFEVKVTIIPPDDMKSAG [r14_723_TrROS]” are 2.39 ± 0.092 kcal/mol, 3.74 ± 0.47 kcal/mol and 4.07 ± 0.16 kcal/mol.
In the case of “SALEEEVKKRAEEIAQEIKEKFPNVKEKVVEIELPLPNGTKLKATVTISRSINEKGIEYKIKIEVSEGLSAG [r14_788_JUSTAS]”, the “folding stability dG unfold” value came to 3.22 ± 0.081 kcal/mol in series [1], 3.68 ± 0.17 kcal/mol in series [2] and 3.99 ± 0.12 kcal/mol in series [3].
Consider “SALIETAEELARELGVEAELVEIEEGEDVALLRIRLRVDGVPYYFLVRIERPGEDPRIFRVEILEVRPESAG [r14_387_TrMRF]”, for which the results for the “folding stability dG unfold” value in series [1], in series [2] and in series [3] were 3.67 ± 0.071 kcal/mol, 4.066 ± 0.031 kcal/mol and 4.302 ± 0.034 kcal/mol, respectively.
“SALKGLKITEIKEVTNEDGSKSLVVRVDGYLLVFDLDTKKLTLVPLPPVTVTVTVYEKKADPNKPEYKKKSA [r9_1065_TrROS_Hall]”: the figures for the “folding stability dG unfold” value in series [1], in series [2] and in series [3] were 1.71 ± 0.042 kcal/mol, 2.77 ± 0.16 kcal/mol and 3.15 ± 0.056 kcal/mol, respectively.
Consider “SALKISVTVDPDGPTATATLELYNPETGKPTTLTATIHRLPDGSYLVTIHFPSNNKTITFTVPEDGVITLSA [r9_1220_TrMRF]”, for which the “folding stability dG unfold” value in series [1] stood at 2.38 ± 0.09 kcal/mol; in series [2] it was 3.03 ± 0.12 kcal/mol; in series [3], 3.48 ± 0.038 kcal/mol.
The matching figures for “SALPNLKIEITLNEDGTITITVTANGEVIATATLTVTLPPPPVEKEVLDANGNKRTVRYDAKTGKAEVFDSA [r9_343_TrROS_Hall]”: 0.106 ± 0.17 kcal/mol, 0.0728 ± 0.47 kcal/mol and 0.065 ± 0.29 kcal/mol.
With “SALTLEELEKRYPELPSELLEKIKEEAEKVPKDRTLTFLLTAPDGRRVRITVTKPDTVTVTVLPPGVPEASA [r9_1024_JUSTAS]”, the “folding stability dG unfold” value in series [1] amounted to 4.13 ± 0.3 kcal/mol; in series [2] it was 4.14 ± 0.14 kcal/mol; in series [3] it was 4.12 ± 0.094 kcal/mol.
On to “SALWVIKDTIKPPNGKKRKISIAIPNDGLYVWFNGGSFPIPLKEIKKIMENFPGYQIDDIEIMPLDELKSAG [r14_336_TrROS]”, for which the figures for the “folding stability dG unfold” value in series [1], in series [2] and in series [3] were 0.798 ± 0.19 kcal/mol, 0.448 ± 0.32 kcal/mol and -0.15 ± 0.53 kcal/mol, respectively.
For the sequence “SAMDLLRERGYDVEEVTKLRDEVLPNGTIVTLYEVTVRLPDRVITTPIKVSGESEEEAEKLAYETVARESAG [r14_726_JUSTAS]”, the “folding stability dG unfold” value in series [1] turned out to be 0.49 ± 0.031 kcal/mol; in series [2], 0.543 ± 0.069 kcal/mol; in series [3] it was 0.582 ± 0.071 kcal/mol.
As for “SAMEIEKIEIEKEEVNGKLYYRIRVKIINKETGKEIELELEFKSLEDALEALKKLPNITRVEITEIEPVSAG [r14_464_TrROS_Hall]”, the “folding stability dG unfold” value was 3.55 ± 0.11 kcal/mol in series [1], 4.93 ± 0.093 kcal/mol in series [2] and 5.18 ± 0.091 kcal/mol in series [3].
